Source: publication PMC2196193

Molecular target: MBP-III2 (rat) (UniProt P04937)
Assay: ELISA

UniProt P04937, sequence (P04937 701-808): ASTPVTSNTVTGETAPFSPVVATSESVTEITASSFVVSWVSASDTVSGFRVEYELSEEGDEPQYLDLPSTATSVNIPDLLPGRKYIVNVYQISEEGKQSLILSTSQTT

- Kd: 28 nM
Substance: rat plasma fibronectin (from UniProt P04937 25-2477) (natural protein)
